B1: Autophagy-related protein 8 (Saccharomyces cerevisiae), P38182 (parent)
chain: MKSTFKSEYPFEKRKAESERIADRFKNRIPVICEKAEKSDIPEIDKRKYLVPADLTVGQFVYVIRKRIMLPPEKAIFIFVNDTLPPTAALMSAIYQEHKDKDGFLYVTYSGENTFGR
partner: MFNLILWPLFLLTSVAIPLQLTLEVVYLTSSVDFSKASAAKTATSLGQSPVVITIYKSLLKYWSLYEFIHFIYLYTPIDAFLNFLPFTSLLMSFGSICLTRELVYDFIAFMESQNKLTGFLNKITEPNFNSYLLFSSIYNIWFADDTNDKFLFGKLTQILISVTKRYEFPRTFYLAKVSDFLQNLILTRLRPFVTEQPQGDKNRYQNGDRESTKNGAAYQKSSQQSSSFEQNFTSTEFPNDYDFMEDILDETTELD
B2: Autophagy-related protein 40 (Saccharomyces cerevisiae), Q99325 (parent)
chain: B1 partner
partner: B1 chain
B3: Autophagy-related protein 39 (Saccharomyces cerevisiae), Q06159 (parent)
chain: MSEEDDHWNLVRLRRLRKGREGEEQSSKSEISLDSLHESSFAGEDDEDFDADVLSNTSSEESAQMNRIYDFRTSNEFSNAGVNIDQTGVPTISESFDTLSGSNVGGTVLPSMEGSKLKDSTIRNSSTLSDHIIDKSEGKSAKLKMWHVIMLSSLLSMTFSYLALEYSLTGDVLAGFKSQQSLRNNERKLLYGNIDFVDKKSYDSSSDSLSQWAPSGKYYVDFDNHIAYPLKDDDLMGWRRYKTDLVILWYTTKARMKDGWHKRINKINGGRIKLHLFLKNSFKSAQESLRVLHKEQKRRWKRLFVLLHNKYRQFSPHIKRYFDHSCQKAKQCWSGSRLQLRKLRFKSMKPFRVFQFKVRKDTNWFVKQLKRFGLKLQHSRMYKAMSECRKKNYFKCKH
partner: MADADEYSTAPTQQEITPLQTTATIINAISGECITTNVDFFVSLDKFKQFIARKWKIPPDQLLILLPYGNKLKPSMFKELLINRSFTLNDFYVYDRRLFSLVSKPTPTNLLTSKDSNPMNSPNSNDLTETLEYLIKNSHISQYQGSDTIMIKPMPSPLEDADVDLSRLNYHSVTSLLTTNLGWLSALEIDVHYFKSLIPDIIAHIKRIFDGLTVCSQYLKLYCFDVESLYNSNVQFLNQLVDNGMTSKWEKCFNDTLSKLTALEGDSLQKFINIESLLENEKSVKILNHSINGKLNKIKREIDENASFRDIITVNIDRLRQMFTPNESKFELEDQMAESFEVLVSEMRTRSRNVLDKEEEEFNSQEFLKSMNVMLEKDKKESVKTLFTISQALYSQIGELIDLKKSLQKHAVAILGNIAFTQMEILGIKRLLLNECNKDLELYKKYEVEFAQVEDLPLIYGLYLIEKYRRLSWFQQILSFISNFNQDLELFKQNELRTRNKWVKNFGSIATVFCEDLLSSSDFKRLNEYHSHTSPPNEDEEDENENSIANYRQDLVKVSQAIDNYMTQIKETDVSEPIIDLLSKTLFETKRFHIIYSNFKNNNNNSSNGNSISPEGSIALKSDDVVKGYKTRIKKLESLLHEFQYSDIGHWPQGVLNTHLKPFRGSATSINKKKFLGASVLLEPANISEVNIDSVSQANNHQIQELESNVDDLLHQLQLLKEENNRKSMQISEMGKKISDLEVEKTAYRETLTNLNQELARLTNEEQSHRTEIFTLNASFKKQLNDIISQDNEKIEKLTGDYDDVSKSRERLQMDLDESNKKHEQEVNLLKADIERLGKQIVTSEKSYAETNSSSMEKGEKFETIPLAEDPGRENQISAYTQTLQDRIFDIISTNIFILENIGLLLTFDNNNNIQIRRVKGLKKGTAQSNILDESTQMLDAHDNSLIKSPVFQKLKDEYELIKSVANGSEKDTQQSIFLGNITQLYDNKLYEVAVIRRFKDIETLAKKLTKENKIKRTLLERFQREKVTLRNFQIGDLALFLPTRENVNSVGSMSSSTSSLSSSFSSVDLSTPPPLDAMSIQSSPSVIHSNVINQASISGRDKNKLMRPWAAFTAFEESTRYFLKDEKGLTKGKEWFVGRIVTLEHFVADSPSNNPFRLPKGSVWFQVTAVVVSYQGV
B4: Autophagy-related protein 39 (Saccharomyces cerevisiae), Q06159 (parent)
chain: B3 chain
partner: B1 chain
B5: Autophagy-related protein 8 (Saccharomyces cerevisiae), P38182 (parent)
chain: B1 chain
partner: B3 chain

Variants of: B1
Settings: with atg40_yeast ATG40, Q99325

Variant | effect of a mutation on the interaction
P52A;R67A | disrupting interaction strength

Variants of: B2
Settings: with atg8_yeast ATG8, P38182

Variant | effect of a mutation on the interaction
Y242A;M245A | disrupting interaction strength

Variants of: B3
Settings: with atg11_yeast ATG11, Q12527

Variant | effect of a mutation on the interaction
D52A;V53A;L54A;S55A;N56A;T57A;S58A;S59A | disrupting interaction strength

Variants of: B4
Settings: with atg8_yeast ATG8, P38182

Variant | effect of a mutation on the interaction
W8A;V11A | disrupting interaction strength

Variants of: B5
Settings: with atg39_yeast ATG39, Q06159

Variant | effect of a mutation on the interaction
P52A;R67A | disrupting interaction strength

Variants of: B5
Settings: with atg39_yeast ATG39, Q06159
Remark: another data set of the same source

Variant | effect of a mutation on the interaction
P52A;R67A | decreasing interaction strength

Source: IntAct's records for PubMed 26040717
